The text below walks through data of paper PMC9968005, “Therapeutic Performance Evaluation of ^213Bi-Labelled Aminopeptidase N (APN/CD13)-Affine NGR-Motif ([^213Bi]Bi-DOTAGA-cKNGRE) in Experimental Tumour Model: A Treasured Tailor for Oncology” (Pharmaceutics, 2023).

Series [1] can be described thus: Serum stability of [205/206Bi]Bi-DOTAGA-cKNGRE. In kind it is in vitro ADME. To be noted: mouse plasma (heading says serum); 50 µL tracer in saline + 50 µL mouse plasma, 90 min, radio-iTLC; read-out: RCP after 90 min incubation in serum. As for the experimental part:
Fifty μL of [^205/206Bi]Bi-DOTAGA-Bn-cKNGRE in physiological saline (Salsol, TEVA, Debrecen, Hungary) was added to the solution of fifty μL of mouse plasma. The RCP of the samples was determined by radio-iTLC at 0, 30, 60 and 90 min time points using the same method as described above. After 90 min the [^205/206Bi]Bi-DOTAGA-Bn-cKNGRE remained intact as the RCP of the sample taken from the mixture was above 95%, which meets the requirements for ^213Bi-labelled radiopharmaceuticals.

A short description of series [2]: LogP measurement of [205/206Bi]Bi-DOTAGA-cKNGRE (n-octanol/water). In kind it is physicochemical. To be noted: shake-flask n-octanol/water, 205/206Bi as surrogates for 213Bi, 10 µL tracer in saline + 0.49 mL water + 0.5 mL n-octanol, shaken 5 min, centrifuged 6000 rpm 5 min, gamma counter. As for the experimental part: For the determination of LogP value we used ^205/206Bi isotopes as surrogates which were produced by GE PETtrace cyclotron using the method described by Lagunas-Solar et al.. The radiolabelling of the precursor was carried out as follows: 50 µL of 3 M NH4OAc buffer (pH 4) and 15 µL of 6 mM DOTAGA-cKNGRE aqueous solution were added to 50 µL [^205/206Bi]BiCl3 in 0.1 M HCl. The labelled complex was purified as described above. Then 10 µL of the purified [^205/206Bi]Bi-DOTAGA-cKNGRE in physiological saline (Salsol, TEVA, Debrecen, Hungary) was diluted with 0.49 mL water. It was then mixed with 0.5 mL n-octanol in a vial and shaken for 5 min. After centrifugation (6000 rpm, 5 min) the radioactivity of the sample from both the aqueous and n-octanol phase was measured with a Perkin Elmer Packard Cobra gamma counter. The LogP value was −2.59.

The next series concerns HT1080 fibrosarcoma. Briefly: Cancer treatment study: tumour volume. In kind it is in vivo, CB17 SCID mice. To be noted: approximately 5 MBq i.p. on days 7, 8, 10, 12, calliper, mean ± SD. The protocol: (§1) Experimental tumour induction was carried out under inhalation anaesthesia with a dedicated small animal anaesthesia device (Tec3 Isoflurane Vaporizer, Eickemeyer Veterinary Equipment, Luton, UK) applying 3% isoflurane (Forane, AbbVie, Chicago, IL, USA), 0.4 L/min O2 and 1.4 L/min N2O. This was followed by depilation and disinfection subcutaneous (s.c.) inoculation of 1.5 × 10^6 HT1080 (human fibrosarcoma) cells in 100 μL (1/3 part of Matrigel and 2/3 part of saline) into the left shoulder area of the CB17 SCID mice. For tumour verification the study mice underwent in vivo [^68Ga]Ga-DOTAGA-cKNGRE-based PET imaging 10 ± 1 days post tumour cell inoculation. To evaluate the organ distribution pattern of the ^213Bi-labelled therapeutic peptide compounds, ex vivo biodistribution studies were also executed 10 ± 1 days following the HT1080 cell transplantation at an average tumour volume of 155 ± 20 mm^3. Thereafter, tumour sizes based on the largest and the smallest tumour diameters were registered ((largest diameter × smallest diameter^2)/2). We used calliper measurements for tumour growth determination.
Seven days after HT1080 cell inoculation the tumour-bearing animals were randomly classified into two subgroups: treatment-naïve group (control, n = 8) and [^213Bi]Bi-DOTAGA-cKNGRE-treated group (treated, n = 8). Approximately 5 MBq [^213Bi]Bi-DOTAGA-cKNGRE was intraperitoneally (i.p.) administered to the experimental mice of the treated cohort on the 7th, 8th, 10th and 12th experimental days. The control mice were i.p. injected with 150 μL saline solution applying the same time regime.
On the 7th, 8th, 10th and 12th days of the investigation at an average tumour volume of 26.56 ± 2.39 mm^3 CB17 SCID mice bearing HT1080 fibrosarcoma in their left shoulder area were i.p. injected with approximately 5 MBq [^213Bi]Bi-DOTAGA- cKNGRE. The treatment-naïve study mice i.p. received 150 μL saline solution on the same experimental days. In a bid to assess the therapeutic efficacy of the investigated probe, body weights (BW, expressed in grams/g ± SD) and tumour volume (mm^3 ± SD) of the small animals were registered. Calliper measurements were applied to evaluate tumour development.

A further series is described as follows: in vivo. Also noted: species or system CB17 SCID mice. To be noted: CB17 SCID, mouse, 5 MBq, total radioactivity. The protocol:
as §1
To assess the organ distribution of [^213Bi]Bi-DOTAGA-cKNGRE, ex vivo investigations were performed. The HT1080 fibrosarcoma-bearing experimental mice were anaesthetised with Forane (5%) and were sacrificed at 30 and 90 min post administration of the radiopharmaceutical. After autopsy, selected tissues, organs and the tumour itself were removed, weighed wet and their radioactivity was measured on a calibrated gamma counter (Perkin-Elmer Packard Cobra, Waltham, MA, USA). Then, the activity was decay corrected to the time of the injection. The percent of administered dose per gram of tissue (%ID/g) was determined for all samples from the counts per minute values (CPM). We presented the ex vivo data as mean %ID/g ± SD.

In series [3] the test system is CD13pos. HT1080 fibrosarcoma. Particulars: mouse, in vivo; cited from earlier work. The protocol:
The tumour-targeting potential of [^213Bi]Bi-DOTAGA-cKNGRE was also evaluated in HT1080 tumour-bearing CB17 mice. […] Although the tumourous tracer activity decreased from 30 to 90 min post-administration, relatively higher accumulation of the HT1080 neoplasms compared with the other organs at 90 min time point yields better tumour-to-background (T/M) ratios and image contrast. The tumour-to-organs ratio is ...

Turning to `N=C(N)NCCC[C@@H]1NC(=O)CNC(=O)[C@H](CC(N)=O)NC(=O)[C@H](CCCCNC(=S)Nc2ccc(CNC(=O)CCC(C(=O)O)N3CCN(CC(=O)O)CCN(CC(=O)O)CCN(CC(=O)O)CC3)cc2)NC(=O)CC[C@@H](C(N)=O)NC1=O` (some centres unmarked) [[^205/206Bi]Bi-DOTAGA-cKNGRE], the remaining at 1.5 h in series [1] was more than 95%. Moreover, the LogP value in series [2] is on record as −2.59.
As for `N=C(N)NCCC[C@@H]1NC(=O)CNC(=O)[C@H](CC(N)=O)NC(=O)[C@H](CCCCNC(=S)Nc2ccc(CNC(=O)CCC(C(=O)O)N3CCN(CC(=O)O)CCN(CC(=O)O)CCN(CC(=O)O)CC3)cc2)NC(=O)CC[C@@H](C(N)=O)NC1=O` (some centres unmarked) [[^213Bi]Bi-DOTAGA-cKNGRE, metal not drawn], the tumour volume in the series with HT1080 fibrosarcoma (day 7) was found to be 28.25 ± 2.67 mm^3; with HT1080 fibrosarcoma (day 8), 23.33 ± 6.87 mm^3; with HT1080 fibrosarcoma (day 9, p ≤ 0.01 vs untreated) it was 35.36 ± 7.57 mm^3; with HT1080 fibrosarcoma (day 10, p ≤ 0.01 vs untreated), 58.33 ± 14.36 mm^3; with HT1080 fibrosarcoma (day 12, p ≤ 0.01 vs untreated), 112.50 ± 18.42 mm^3. The tissue uptake at 0.5 h in “in vivo” (HT1080 tumor) was found to be 1.48 ± 0.18 %ID/g; in the series “in vivo” (blood), 2.72 ± 0.22 %ID/g; in the series “in vivo” (bone (femur)) it was 0.69 ± 0.38 %ID/g; in “in vivo” (fat), 0.72 ± 0.05 %ID/g; in the series “in vivo” (kidney), 11.4 ± 1.41 %ID/g; in “in vivo” (lung) it was 2.09 ± 0.74 %ID/g. In addition, the tissue uptake at 0.5 h in “in vivo” (pancreas) was 0.57 ± 0.18 %ID/g; in the series “in vivo” (stomach), 0.73 ± 0.04 %ID/g. Besides, the tissue uptake at 1.5 h stood at 0.8 ± 0.16 %ID/g in “in vivo” (HT1080 tumor), 4.51 ± 1.21 %ID/g in the series “in vivo” (kidney), 0.06 ± 0.02 %ID/g in “in vivo” (muscle) and 0.08 ± 0.03 %ID/g in the series “in vivo” (pancreas).
Take “^68Ga-NOTA-Gly3-CNGRC [[^68Ga]Ga-NOTA-G3-NGR, ^68Ga-tagged CD13-affine peptide derivate, literature PET tracer]”: in series [3], the tumour accumulation is 4.96 ± 3.18 ID%/g.
